From US20250011391A1, “ULTRA LIGHT-SENSITIVE NEUROPSIN-BASED OPTOGENETIC TOOL FOR ACTIVATING G q-COUPLED SIGNALING AND/OR ACTIVATING CELLS” (GENANS BIOTECHNOLOGY CO., LTD, priority 2021, published 2025)

Columns and labels:
[1] = system: Gq signaling in HEK 293T cells; experiment: Light-induced Ca2+ signal (Calbryte 630 AM dye) in opsin-expressing HEK 293T cells; type: cell-based; conditions: for Light Sensitivity / Response amplitude: Ca2+ response amplitude: Table 8
Experimental: (§1) Whether heterologous expression of the Opn5 orthologs from chicken, turtles, humans and mice (which share 80-90% protein sequence identity) have the capacity to mediate blue light-induced Gq signaling activation within HEK 293T cells is tested (FIG. 1a and table 7). Blue light for stimulation and the red intracellular calcium indicator Calbryte™ 630 AM dye are used to monitor the relative Ca^2+ response (FIG. 1b).
b, Pseudocolor images of the Ca2+ signal before and after blue light stimulation (10 s; 100 μW/mm^2; 488 nm) in HEK 293T cells expressing Opn5 from three species (Gallus gallus, Homo sapiens, and Mus musculus). Scale bar, 10 μm.
Characterizing the light-activating properties of cOpn5 heterologously expressed in HEK 293T cells is performed. […] The effects of different light durations on cOpn5-expressing HEK 293T cells are tested. […] Therefore, the light sensitivity of cOpn5 is 3-4 orders of magnitude higher than the reported values of the light-sensitive Gq-coupled GPCRs and even 2-3 orders higher than those of the commonly used optogenetic tool Channelrhodopsin-2 (ChR2)(Lin, 2011; Zhang et al., 2006) (table 8).
The performance of cOpn5 to that of opto-a1AR, a chimera GPCR engineered by mixing rhodopsin with Gq-coupled adrenergic receptor is compared. […] The performance of cOpn5 to that of opn4, a natural opsin which was reported as a tool for Gq signaling activating is also compared. […] Therefore, compared with existing opsin-based tools (opto-a1AR and opn4), cOpn5 is much more light-sensitive (˜3 orders more sensitive), requires much shorter time exposure (10 ms vs. 60 s), and produces stronger responses. […]
Experiments description: the following table 9 is a partial list of cOpn5 orthologs from vertebrata tested in the present invention. Whole genes of all reported opsin5 orthologs from vertebrata (the vertebrates subphylum, including rotundia, cartilaginous fishes, bony fishes, Amphibia, reptila, ornitha and mammals) are synthetized, and expressed in HEK 293T cells. Calcium imaging with or without 470 nm blue light stimulation is performed to test the sensitivity of the opsin 5 orthologs in response to light. The time course of light-induced calcium signal reveal the activated degree of Gq signaling pathway and the sensitivity of these orthologs.

[2] = system: Gq signaling in HEK 293T cells; experiment: IP1 accumulation in Opn5-expressing HEK 293T cells; type: cell-based; conditions: continuous light 3 min; 100 μW/mm2; 470 nm
Experimental: as §1
f, YM suppressed the IP1 accumulation evoked by continuous light stimulation (3 min; 100 μW/mm^2; 470 nm) in cOpn5-expressing HEK 293T cells (Left). ***P<0.0001, *P=0.0128; Tukey's multiple comparisons test.

Gi signaling = experiment: cAMP levels in Opn5-expressing HEK 293T cells after photostimulation; type: cell-based; conditions: without additional retinal; 10 μM forskolin preincubation
Experimental: as §1
f, Light has no effect on cAMP levels (10 μM forskolin preincubation) in cOpn5-expressing HEK 293T cells without additional retinal in the medium (left panel).

[3] = system: primary astrocyte cultures; experiment: Light-induced Ca2+ transients in cOpn5-expressing primary astrocyte cultures; type: cell-based, mouse; conditions: cOpn5-expressing astrocytes; Calbryte 630 AM
Excerpt: cOpn5 optogenetics allows spatially precise control of cellular activity. Restricting brief light stimulation (63 ms) into a subcellular region of individual cOpn5-expressing HEK 293T cell results in the immediate activation of single cell. […] The findings are extended into primary cell cultures. cOpn5 is expressed in primary astrocyte cultures prepared from the neonatal mouse brain with AAV vectors for bicistronic expression of cOpn5 and the EGFP marker protein (FIG. 5a). […] If the light stimulation (63 ms) is precisely restricted to only subcellular region of an individual cOpn5-expressing astrocyte, Ca^2+ signal propagation within the individual cell is observed (FIG. 3f). Resembling the tests in HEK 293T cells, wave-like propagation of Ca^2+ signals from the stimulated astrocyte that proceeded gradually to more distal, non-stimulated, astrocytes is observed (FIG. 3g, h).
a, cOpn5 was expressed in cultured primary astrocytes using AAV-cOpn5-T2A-EGFP (green). Astrocyte identity was confirmed by GFAP immunostaining (red). Scale bar, 20 μm.
b, Pseudocolor images of the baseline and peak Ca^2+ signals following light stimulation of cOpn5-expressing astrocytes. Scale bar, 20 μm.
c, Plot of Ca^2+ signals and heat map representation of Ca^2+ signals across trials (n=25 cells).

mouse cortical neurons = experiment: Ca2+ imaging (jRGECO1a) of cOpn5-expressing neurons in brain slice preparations; type: cell-based; conditions: 10 s; 100 μW/mm2; 473 nm
Excerpt: The application of cOpn5-mediated optogenetics in neurons is explored. Whether cOpn5 could mediate light-induced Ca^2+ signals is firstly examined. Using AAV and the pan-neuronal SYN promoter, cOpn5 and the genetically-encoded Ca^2+ sensor jRGECOla are expressed in mouse cortical neurons (FIG. 8a). […] Thus, cOpn5 also enables light-induced activation in neurons.
b, Pseudocolor images show Ca^2+ signals before and after light stimulation (10 s; 100 μW/mm2; 473 nm). Scale bar, 10 μm.

[4] = system: GABA neurons in the zona incerta (ZI) of VGAT-Cre mice; experiment: Food-foraging behavior task; type: in vivo, mouse; conditions: vs EGFP-expressing mice
Experimental: Finally, the utility of cOpn5-mediated optogenetics for modulating animal behavior is assessed. The lateral hypothalamus (LH) is a brain center with known functions in reward processing and feeding behaviors^54,55. cOpn5 is expressed in the LH GABAergic neurons of VGAT-Cre mice and implanted optical fibers to deliver light pulses into the LH of freely behaving mice (FIG. 8g). […] Electrophysiological recordings on LH and ZI cOpn5-expressing neurons are performed to characterize the response profiles. The injection sites and placement of optical fibers are confirmed by whole brain slices (FIG. 10a-c). […] Thus, cOpn5 is effective for rapidly, accurately, and reversibly modulating animal behavioral states.
i, Schematic diagram of the experimental setup for food foraging behavior. High-fat food pellets were used. cOpn5-EGFP was expressed in GABAergic neurons within the zonal incerta (ZI) of VGAT-Cre mice. EGFP was expressed as a control.
j, Summary of cOpn5-mediated food foraging behaviors. Foraging time percentage was calculated upon receiving light stimulation until the mouse found the hidden food. ****P<0.0001; n=6 mice; unpaired t test. Error bars indicate S.E.M.

[5] = 10 ms 16 μW/mm2 470 nm, mean±S.E.M., n=10 cells

B1: cOpn5: Chicken (Gallus gallus) Opn5 (neuropsin) ortholog, SEQ ID NO:1, GenBank NM_001130743.1 (protein, listed as Gallus lafayetii)
chain: MSGMASDCNSSSQEEYLPHYVQQEDPFASKLSREADIIAGFYLTVIGILSTLGNGYVIFMSSKRKKKLRPAEIMTVNLAVCDLGISVVGKPFSIISFFSHRWIFGWMGCRWYGWAGFFFGCGSLITMTAVSLDRYLKICHLAYGTWLKRHHAFICLALIWAYATFWATVPFAGVGSYAPEPFGTSCTLDWWLAQASVAGQAFVLSILFFCLLFPTAVIVFSYVKIILKVKSSTKEVAHYDTRIQNSHILEMKLTKVAMLICAGFLIAWIPYAVVSVWSAFGQPDSVPIQFSVVPTLLAKSAAMYNPIIYQVIDCKFACCRSGGPKTLQKKSSLKESRMYTLSSHRDSAALSGTQLEV
B1 was tested, and the “light sensitivity higher than reported values of Channelrhodopsin-2 (ChR2)” value [1] was 2-3 orders of magnitude, the “light sensitivity higher than reported values of light-sensitive Gq-coupled GPCRs” value [1] was 3-4 orders of magnitude and the “more light-sensitive than opto-a1AR and opn4” value [1] was roughly 3 orders. For the same molecule, the “10% peak activation time of Ca2+ signal” value [1, 5] was 1.36 ± 0.55 s, the “90% peak activation time of Ca2+ signal” value [1, 5] was 2.37 ± 0.87 s and the “decay time τ of Ca2+ signal” value [1, 5] was 18.66 ± 4.98 s. For the same molecule, the “Ca2+ signals without extracellular Ca2+” value ([1]; 10 ms, 16 μW/mm2, 470 nm) was “resistant to the removal of extracellular Ca^2+”, the “light duration at which Ca2+ response achieves saturation” value ([1]; 16 μW/mm2, 470 nm) was “over 10 ms” and the “Ca2+ response to longer-wavelength visible light (561 nm or above)” value ([1]; 100 μW/mm2) was “completely ineffective”. For the same molecule, the “Ca2+ response to UVA light (365 and 395 nm)” value ([1]; 100 μW/mm2, versus 470 nm) was “less effective”, the “light intensity producing about half maximum response” value ([1]; 470 nm, 10 ms) was roughly 4.8 μW/mm^2 and the “light intensity producing full maximum response / full activation” value ([1]; 470 nm, 10 ms) was 16 μW/mm^2. The “light duration required for full activation” value ([1]; 470 nm, 16 μW/mm2) was 10 ms, the “Light Sensitivity” value ([1]; HEK 293T cells, 10 ms stimulation, response ~3.0 ΔF/F) was 16 μW/mm^2 and the “Response amplitude: Ca2+ response amplitude” value ([1]; HEK 293T cells, 470 nm, 0.026 μW/mm2, >2 s) was ~1 (ΔE/F). For the same molecule, the “Light Sensitivity” value ([1]; HEK 293T cells, >2 s stimulation, response ~1) was 0.026 μW/mm^2, the “Response amplitude: Ca2+ response amplitude” value ([1]; HEK 293T, light as in the row's sensitivity and duration columns) was ~3.0 (ΔF/F) and the “light-induced increase in Ca2+ signal” value ([1]; blue light 10 s, 100 μW/mm2, 488 nm, no exogenous retinal) was ~3 ΔF/F. For the same molecule, the “peak amplitudes of Ca2+ signals” value ([1]; cOpn5-expressing cells, 10 ms blue light pulses at 16 μW/mm2) was 3-8 ΔF/F, the “more rapid than opto-a1AR or opn4 (temporal resolution)” value ([1]; in response to 10 ms light pulses) was ~3 orders of magnitude and the “response kinetics versus hM3Dq-expressing cells” value ([1]; light 10 s vs CNO puff 100 nM 10 s) was “faster and temporally more precise response”. The “wavelength eliciting the strongest Ca2+ transients” value ([1]; wavelengths 365-630 nm at fixed 100 μW/mm2) was 470 nm, the “light-induced increase in the level of inositol phosphate (IP1)” value [2] was “light-induced increase” and the “effect of light on cAMP levels” value (Gi signaling) was “has no such effect”. For the same molecule, the “Ca2+ transients on blue light illumination” value [3] was ~8 ΔF/F, the “Ca2+ transients in neurons on blue light pulses” value (mouse cortical neurons) was “reliably evokes Ca^2+ transients” and the “time of foraging high fat food pellets on repeated light stimulation” value [4] was “significantly increase in the time of foraging”.
